Results: patent publication US9327008B2, “Cell-permeant peptide-based inhibitor of kinases” (Purdue Research Foundation, priority 2008, dated 2016)

Tests used:
Format in all cases: biochemical
[1] = molecular target: T1, EphA2 (Homo sapiens, UniProt P29317); test: Millipore radiometric kinase activity assay, EphA2 (h)
T1 construct: purchased Millipore (assay service)
Procedure: (§1) A commercial radiometric assay service (Millipore, Billerica, Mass.) was used to test the specificity and potency of peptides containing a coupled transduction domain and therapeutic domain, hereinafter “complete peptides”). In these assays, if the kinase is not inhibited by an inhibitor peptide, a positively charged substrate is phosphorylated with a radiolabeled phosphate group from an ATP.
(§2) In a final reaction volume of 25 μL, EphA2 (h) (5-10 mU) is incubated with 8 mM MOPS pH 7.0, 0.2 mM EDTA, 0.1 mg/mL poly(Glu, Tyr) 4:1, 10 mM MgAcetate and [γ-^33P-ATP] (specific activity approx. 500 cpm/pmol, concentration as required). The reaction is initiated by the addition of the MgATP mix. After incubation for 40 minutes at room temperature, the reaction is stopped by the addition of 5 μL of a 3% phosphoric acid solution. 10 μL of the reaction is then spotted onto a Filtermat A and washed three times for 5 minutes in 75 mM phosphoric acid and once in methanol prior to drying and scintillation counting.
(§3) IC50 values for inhibitor peptides were determined using Millipore's IC50Profiler Express service. The IC50 value was estimated from a 10-point curve of one-half log dilutions. For peptides tested for specificity, the concentration of the peptides that inhibited approximately 95% of MK2 activity was chosen to profile against a battery of kinases related to MK2, cell viability, or human disease from MilliporeKinaseProfiler service. In both assays, compounds were supplied in dimethylsulfoxide (DMSO). Every kinase activity measurement was conducted in duplicate.
(§4) Therapeutic inhibitor peptides were assayed for activity against human kinases related to MK2, cell viability, or human disease. The assays were performed using concentrations of therapeutic inhibitor peptides that yielded 2% to 8% of normal MK2 activity. Error is reported as the standard deviation between 2 samples, and “c” is rat AMPK whereas all other kinases used are human kinases.

[2] = molecular target: T2, Syk (Homo sapiens, UniProt P43405); test: Millipore radiometric kinase activity assay, Syk (h)
T2 construct: purchased Millipore (radiometric assay service)
Procedure: as §1
as §2, with “Syk” for “EphA2”, “50” for “8”, “Tris” for “MOPS”, “7.5, 0.1” for “7.0, 0.2”, “EGTA, 0.1 mM Na3VO4, 0.1% β-mercaptoethanol,” for “EDTA,”, “[γ-^33PATP]” for “[γ-^33P-ATP]”
as §3, §4

[3] = system: AMPK; test: Millipore radiometric kinase activity assay, AMPK (r); details: rat AMPK
Procedure: as §1
as §2, with “AMPK (r)” for “μL, EphA2 (h)”, “32” for “8”, “HEPES” for “MOPS”, “7.4, 0.65” for “7.0, 0.2”, “DTT, 0.012% Brij-35, 200 μM AMP, 200 μM […] [SEQ ID NO: 49],” for “EDTA, 0.1 mg/mL poly(Glu, Tyr) 4:1,”, “P30 filtermat” for “Filtermat A”
as §3, §4

[4] = molecular target: T3, c-Kit (Homo sapiens, UniProt P10721); test: Millipore radiometric kinase activity assay, c-Kit (h)
T3 construct: purchased Millipore (assay service)
Procedure: as §1
as §2, with “c-Kit” for “EphA2”, “EDTA, 10 mM MnCl2,” for “EDTA,”
as §3, §4

[5] = molecular target: T4, KDR (Homo sapiens, UniProt P35968); test: Millipore radiometric kinase activity assay, KDR (h)
T4 construct: purchased Millipore (assay service)
Procedure: as §1
as §2, with “KDR” for “EphA2”, “0.33” for “0.1”, “myelin basic protein,” for “poly(Glu, Tyr) 4:1,”, “P30 filtermat” for “Filtermat A”
as §3, §4

[6] = molecular target: T5, MEK1 (Homo sapiens, UniProt Q02750); test: Millipore radiometric kinase activity assay, MEK1 (h)
T5 construct: purchased Millipore (radiometric assay service)
Procedure: as §1
The reaction is initiated by the addition of the MgATP. After incubation for 40 minutes at room temperature, 5 μL of this incubation mix is used to initiate a MAPK2 (m) assay.
as §3, §4

[7] = molecular target: T6, PDGFRβ (Homo sapiens, UniProt P09619); test: Millipore radiometric kinase activity assay, PDGFRβ (h)
T6 construct: purchased Millipore (radiometric assay service)
Procedure: as §1
as §2, with “PDGFRβ” for “EphA2”, “4:1, 10 mM MnCl2,” for “4:1,”
as §3, §4

T6 sequence (P09619 33-1106): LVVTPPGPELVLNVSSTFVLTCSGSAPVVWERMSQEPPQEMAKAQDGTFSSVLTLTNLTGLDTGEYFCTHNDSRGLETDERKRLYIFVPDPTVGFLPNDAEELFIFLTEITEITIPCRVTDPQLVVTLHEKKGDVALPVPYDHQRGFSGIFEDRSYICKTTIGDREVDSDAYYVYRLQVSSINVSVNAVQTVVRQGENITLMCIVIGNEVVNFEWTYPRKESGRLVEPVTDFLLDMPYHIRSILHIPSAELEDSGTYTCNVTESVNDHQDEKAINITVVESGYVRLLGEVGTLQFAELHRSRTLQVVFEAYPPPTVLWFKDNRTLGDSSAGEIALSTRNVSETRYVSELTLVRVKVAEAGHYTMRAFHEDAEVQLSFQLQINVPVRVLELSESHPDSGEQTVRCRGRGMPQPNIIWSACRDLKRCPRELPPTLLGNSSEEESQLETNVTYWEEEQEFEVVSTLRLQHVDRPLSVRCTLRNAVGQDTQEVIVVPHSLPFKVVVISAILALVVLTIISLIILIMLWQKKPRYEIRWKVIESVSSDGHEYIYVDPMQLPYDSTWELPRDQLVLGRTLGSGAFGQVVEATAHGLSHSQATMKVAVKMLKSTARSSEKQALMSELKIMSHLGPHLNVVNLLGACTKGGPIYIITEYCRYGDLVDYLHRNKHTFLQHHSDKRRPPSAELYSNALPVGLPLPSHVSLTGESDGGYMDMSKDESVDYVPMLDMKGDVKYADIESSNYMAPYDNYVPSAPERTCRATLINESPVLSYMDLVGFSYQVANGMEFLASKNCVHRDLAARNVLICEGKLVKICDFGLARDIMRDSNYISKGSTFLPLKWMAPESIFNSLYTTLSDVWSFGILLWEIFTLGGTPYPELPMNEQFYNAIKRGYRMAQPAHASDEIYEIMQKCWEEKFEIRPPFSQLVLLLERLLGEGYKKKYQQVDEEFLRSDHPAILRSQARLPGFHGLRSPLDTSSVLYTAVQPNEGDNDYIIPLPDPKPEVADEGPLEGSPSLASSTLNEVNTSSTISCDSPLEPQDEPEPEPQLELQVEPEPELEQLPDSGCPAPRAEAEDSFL
T4 sequence (P35968 20-1356): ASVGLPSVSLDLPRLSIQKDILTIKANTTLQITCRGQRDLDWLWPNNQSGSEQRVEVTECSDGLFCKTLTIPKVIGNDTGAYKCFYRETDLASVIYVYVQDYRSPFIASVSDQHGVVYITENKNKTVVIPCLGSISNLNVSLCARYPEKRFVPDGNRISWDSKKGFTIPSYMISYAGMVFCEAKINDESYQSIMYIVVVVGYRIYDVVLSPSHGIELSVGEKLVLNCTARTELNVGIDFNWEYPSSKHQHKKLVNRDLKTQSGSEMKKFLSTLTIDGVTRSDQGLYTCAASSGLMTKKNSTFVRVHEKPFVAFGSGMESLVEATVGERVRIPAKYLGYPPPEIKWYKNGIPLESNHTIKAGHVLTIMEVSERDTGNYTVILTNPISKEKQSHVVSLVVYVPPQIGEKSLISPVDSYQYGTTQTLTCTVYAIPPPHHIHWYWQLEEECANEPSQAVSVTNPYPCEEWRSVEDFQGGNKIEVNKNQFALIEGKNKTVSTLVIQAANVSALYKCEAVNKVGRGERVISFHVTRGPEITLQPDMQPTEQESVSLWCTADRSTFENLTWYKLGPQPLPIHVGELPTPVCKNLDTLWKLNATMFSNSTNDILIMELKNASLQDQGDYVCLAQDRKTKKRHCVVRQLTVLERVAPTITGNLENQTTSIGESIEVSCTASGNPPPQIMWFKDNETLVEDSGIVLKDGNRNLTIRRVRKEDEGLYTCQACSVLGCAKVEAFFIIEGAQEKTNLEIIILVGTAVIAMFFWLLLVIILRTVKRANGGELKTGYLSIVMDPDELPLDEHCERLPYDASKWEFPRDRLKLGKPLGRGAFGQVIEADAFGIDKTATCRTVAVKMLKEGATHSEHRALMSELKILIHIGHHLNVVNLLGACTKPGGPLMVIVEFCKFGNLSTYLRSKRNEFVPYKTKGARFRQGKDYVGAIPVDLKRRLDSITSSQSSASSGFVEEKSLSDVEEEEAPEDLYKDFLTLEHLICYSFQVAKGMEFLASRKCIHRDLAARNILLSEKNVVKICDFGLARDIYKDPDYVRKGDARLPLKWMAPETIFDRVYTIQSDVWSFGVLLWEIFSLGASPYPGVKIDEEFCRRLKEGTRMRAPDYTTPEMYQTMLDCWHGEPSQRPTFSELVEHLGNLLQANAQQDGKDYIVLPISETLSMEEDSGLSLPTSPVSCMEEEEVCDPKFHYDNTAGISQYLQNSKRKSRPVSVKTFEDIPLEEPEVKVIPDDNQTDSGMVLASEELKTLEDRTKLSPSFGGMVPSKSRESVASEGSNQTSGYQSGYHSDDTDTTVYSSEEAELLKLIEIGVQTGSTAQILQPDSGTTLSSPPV
T3 sequence (P10721 26-976): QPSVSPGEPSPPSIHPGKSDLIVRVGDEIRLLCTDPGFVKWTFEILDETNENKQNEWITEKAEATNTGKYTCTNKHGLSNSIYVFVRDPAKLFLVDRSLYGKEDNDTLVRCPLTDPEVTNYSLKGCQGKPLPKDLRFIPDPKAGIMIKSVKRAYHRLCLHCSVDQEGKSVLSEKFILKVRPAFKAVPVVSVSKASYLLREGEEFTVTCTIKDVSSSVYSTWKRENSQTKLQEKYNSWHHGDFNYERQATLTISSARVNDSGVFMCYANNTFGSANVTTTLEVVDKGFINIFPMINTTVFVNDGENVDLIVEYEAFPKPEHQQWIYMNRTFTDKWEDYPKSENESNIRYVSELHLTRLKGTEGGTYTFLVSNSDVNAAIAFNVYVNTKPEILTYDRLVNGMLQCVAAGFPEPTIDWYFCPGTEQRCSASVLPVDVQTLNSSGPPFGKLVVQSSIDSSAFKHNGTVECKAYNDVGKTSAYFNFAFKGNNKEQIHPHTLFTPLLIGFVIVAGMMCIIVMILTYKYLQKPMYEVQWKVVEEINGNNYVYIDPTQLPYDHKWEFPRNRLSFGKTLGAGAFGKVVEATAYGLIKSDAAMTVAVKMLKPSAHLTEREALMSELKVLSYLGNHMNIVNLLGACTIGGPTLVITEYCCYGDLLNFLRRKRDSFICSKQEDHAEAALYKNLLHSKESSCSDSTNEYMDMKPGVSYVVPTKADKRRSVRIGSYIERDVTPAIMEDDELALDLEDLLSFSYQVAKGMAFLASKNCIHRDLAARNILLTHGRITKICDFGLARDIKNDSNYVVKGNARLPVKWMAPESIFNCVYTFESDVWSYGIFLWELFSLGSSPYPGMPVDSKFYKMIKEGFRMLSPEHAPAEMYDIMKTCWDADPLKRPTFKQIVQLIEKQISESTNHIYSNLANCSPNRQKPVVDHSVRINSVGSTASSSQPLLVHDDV
T1 sequence (P29317 24-976): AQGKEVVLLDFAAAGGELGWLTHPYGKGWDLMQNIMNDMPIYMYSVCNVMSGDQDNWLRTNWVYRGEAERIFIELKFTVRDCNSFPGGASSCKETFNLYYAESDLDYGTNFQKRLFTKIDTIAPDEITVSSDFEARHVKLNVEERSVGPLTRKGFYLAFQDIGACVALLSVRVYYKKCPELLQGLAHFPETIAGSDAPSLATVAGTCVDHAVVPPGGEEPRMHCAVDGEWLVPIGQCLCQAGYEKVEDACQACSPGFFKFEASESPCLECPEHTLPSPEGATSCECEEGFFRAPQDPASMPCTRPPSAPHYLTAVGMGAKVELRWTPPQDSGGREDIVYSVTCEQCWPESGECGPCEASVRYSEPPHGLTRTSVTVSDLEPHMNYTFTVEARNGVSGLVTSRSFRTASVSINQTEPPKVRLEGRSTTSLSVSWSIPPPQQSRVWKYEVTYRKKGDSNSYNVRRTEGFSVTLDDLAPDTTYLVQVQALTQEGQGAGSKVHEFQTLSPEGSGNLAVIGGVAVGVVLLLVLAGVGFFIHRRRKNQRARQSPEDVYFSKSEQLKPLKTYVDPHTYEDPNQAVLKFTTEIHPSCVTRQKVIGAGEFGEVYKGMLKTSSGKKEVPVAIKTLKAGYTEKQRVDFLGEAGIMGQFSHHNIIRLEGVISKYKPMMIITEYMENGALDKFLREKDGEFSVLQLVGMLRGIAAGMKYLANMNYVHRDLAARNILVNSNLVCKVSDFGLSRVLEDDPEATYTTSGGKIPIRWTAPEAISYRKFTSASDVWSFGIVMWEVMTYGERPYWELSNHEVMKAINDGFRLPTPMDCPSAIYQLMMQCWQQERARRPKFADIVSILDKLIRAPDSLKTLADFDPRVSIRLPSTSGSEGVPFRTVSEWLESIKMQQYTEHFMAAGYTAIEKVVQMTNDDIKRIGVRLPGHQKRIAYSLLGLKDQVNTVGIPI

Sequence | EphA2 Kinase Activity (%) (+SD %) ([1]; peptide 100 μM) | Syk Kinase Activity (%) (+SD %) ([2]; peptide 100 μM) | AMPK Kinase Activity (%) (+SD %) ([3]; peptide 100 μM) | cKit Kinase Activity (%) (+SD %) ([4]; peptide 100 μM) | KDR Kinase Activity (%) (+SD %) ([5]; peptide 100 μM) | MEK1 Kinase Activity (%) (+SD %) ([6]; peptide 100 μM) | PDGFRβ Kinase Activity (%) (+SD %) ([7]; peptide 100 μM) | EphA2 Kinase Activity (%) (+SD %) ([1]; peptide 30 μM) | Syk Kinase Activity (%) (+SD %) ([2]; peptide 30 μM) | AMPK Kinase Activity (%) (+SD %) ([3]; peptide 30 μM) | cKit Kinase Activity (%) (+SD %) ([4]; peptide 30 μM) | KDR Kinase Activity (%) (+SD %) ([5]; peptide 30 μM) | MEK1 Kinase Activity (%) (+SD %) ([6]; peptide 30 μM) | PDGFRβ Kinase Activity (%) (+SD %) ([7]; peptide 30 μM)
KAFAKLAARLYRKALARQLGVAA | 22 (7) % | 4 (4) % | 118 (7) % | 31 (6) % | 56 (4) % | 66 (0) % | 66 (8) % | – | – | – | – | – | – | –
WLRRIKAWLRRIKALNRQLGVAA | 32 (2) % | 38 (9) % | 101 (6) % | 42 (3) % | 78 (6) % | 68 (2) % | 92 (4) % | 38 (4) % | 19 (3) % | 36 (4) % | 23 (2) % | 27 (0) % | 14 (2) % | 42 (4) %
